Measured values as given in paper PMC7725843, “Structural and biochemical analyses of an aminoglycoside 2′-N-acetyltransferase from Mycolicibacterium smegmatis” (Scientific Reports, 2020).

Molecular target: the molecule itself
Experiment: AUC; analytical ultracentrifugation of apo-AAC(2′)-Id; 20 mM Tris-HCl (pH 8.0), 150 mM NaCl, 293 K, 40,000 rpm, monitored at 280 nm, SEDFIT

B1: Aminoglycoside 2′-N-acetyltransferase from Mycolicibacterium smegmatis [AAC(2′)-Id] (enzyme)
chain: MLTQHVSEARTRGAIHTARLIHTSDLDQETRDGARRMVIEAFRDPSGDSDFTDDFTDDDWDHALGGMHALISHHGALIAHGAVVQRRLMYRGPDGRGHALRCGYVEAVAVREDRRGDGLGTAVLDALEQVIRGAYQIGALSASDIARPMYIARGWLSWEGPTSVLTPTEGIVRTPEDDRSLFVLPVDLPDGLELDTAREITCDWRSGDPW
notes: also called apo-AAC(2′)-Id; AAC(2′) from M. smegmatis; source: E. coli BL21(DE3), purified (Ni-NTA, Q-Sepharose, thrombin cleavage, Superdex 200); not shown: His-tag, N-terminal, cleaved
stoichiometry N: 2
